Patent US20240108738A1 (Bicycle, published 2024)
Numbered stars: 1 amine (or outer) side, 2 acyl side, 3 side chain; on linkers, the order of the positions; unused ones are H or OH. Bridge positions count the residues as written; N and C are the ends. Square brackets hold non-standard residues; d marks the D form. Primed or numbered codes have the meaning given here. Ends that are not written are not given here. * marks the point of attachment. TBMT(3) = 2,4,6-tris(bromomethyl)-s-triazine scaffold, C(c1nc(C[*:2])nc(C[*:3])n1)[*:1]; TBMT = 2,4,6-tris(bromomethyl)-s-triazine, C(c1nc(C[*:2])nc(C[*:3])n1)[*:1]; TBMT″ = 2,4,6-tris(bromomethyl)-s-triazine, scaffold on three Cys; TATA = O=C(CC[*:1])N1CN(C(=O)CC[*:2])CN(C(=O)CC[*:3])C1; Biotin = O=C1N[C@H]2[C@H](CS[C@H]2CCCCC(=O)*)N1; hPhe = N[C@@H](CCc1ccccc1)C(=O)O; Cba = N[C@@H](CC1CCC1)C(=O)O; Pent4ynoyl = C#CCCC(=O)*; Sar = CNCC(=O)O

Experiments:
[1] = molecular target: T1, human CD16a F176 variant, biotinylated (human, UniProt P08637 17-208, C-terminally biotinylated); assay: SPR
T1 construct: supplier is told for the AlphaScreen assay only; also called F Variant; FcγRIIIA F variant
Description: (§1) The SPR analysis was run at 25° C. at a flow rate of 50 μl/min with 60 seconds association and dissociation between 60 and 200 seconds. Data were corrected for DMSO excluded volume effects. All data were double-referenced for blank injections and reference surface using standard processing procedures and data processing and kinetic fitting were performed using Scrubber software, version 2.0c (BioLogic Software). Data were fitted using simple 1:1 binding model allowing for mass transport effects where appropriate.
(§2) For analysis of peptide binding, a Biacore 8k+ instrument was used with a CM5 chip (Cytiva). All experiments were carried out at 25° C. Streptavidin was immobilized on all flow cells by standard amine coupling chemistry. The running buffer was HBS-N(Cytiva, 10 mM HEPES, 0.15 M NaCl, pH 7.4) and the flow rate was 10 μl/min. The carboxymethyl dextran surface was activated with a 1:1 ratio of 0.4 M 1-ethyl-3-(3-dimethylaminopropyl) carbodiimide hydrochloride (EDC)/0.1 M N-hydroxy succinimide (NHS) (Cytiva) for 420s. Streptavidin (ProSpec, cat no. PRO-791) was diluted to 0.2 mg/ml in 10 mM sodium acetate pH 4.5 and was injected onto the chip surface for 600 s. Residual activated groups were blocked with a 420 s injection of 1 M ethanolamine (pH 8.5). The final surface density was 2000-3000 RU. Biotinylated CD16a was diluted to 5 μg/ml in HBS-N and was captured on flow cell 2 only of the streptavidin chip at a flow rate of 10 μl/min to 1500-2500 RU. The buffer was then changed to PBS-P+(Cytiva) supplemented with 0.5-2% DMSO. […] The flow rate was 30 μl/min with 100 s association and 400 s dissociation. Data were corrected for DMSO volume exclusion effects. All data were double-referenced against blank injections and reference surface response using standard processing procedures. Data processing and kinetic fitting was performed using Biacore Insight Evaluation Software with Extended Screening and Characterization Extension (Cytiva). Data were fitted using steady state affinity 1:1 binding model to determine KD. Data were fitted using kinetic 1:1 binding model to determine kinetic constants where appropriate.

[2] = molecular target: T2, CD16a/FCgRIIIa (F158 variant) on HEK293 cells, Terbium-labelled (UniProt P08637 17-254, limits assumed, Terbium donor dye); assay: HTRF competition vs IgG-d2 on HEK293 cells
T2 construct: whole, on cells; also called cellular CD16a
Description: Binding to cellular CD16a/FCgRIIIa (F158 variant) was determined through competition with IgG for binding to CD16a receptors expressed on HEK293 cells.
The experimental procedure followed the manufacturer's instructions detailed in the product information for the CD16 (FCγRIIIa) kit (Cisbio-6FR3APAG). […] Bicycle peptides were dispensed using Echo compound handler at a top concentration of 20 μM. The competing unlabeled antibodies and bicyclic peptides were added in a three-fold dilution series in Tag-lite buffer into PerkinElmer-ProxiPlate-384 Plus.
The HEK293 cell expressing Terbium-labelled CD16a were thawed and washed in PBS and added to the wells of PerkinElmer-ProxiPlate-384 Plus containing the competitor compounds. […] The data was plotted in Graph pad prism and IC50-values were determined to indicate unlabeled antibody or bicyclic peptide competition for cellular binding to the CD16a receptor.

[3] = molecular target: T1, human CD16a F176 variant, biotinylated; assay: AlphaScreen competition vs mouse IgG2a
Description: (§3) Bicyclic peptides were evaluated with a CD16a-IgG competition assay using Perkin Elmer AlphaScreen™ technology. Acceptor beads (Perkin Elmer 6762003) were chemically conjugated via a reductive amination reaction with a mouse IgG2a mAb to link via the free amines, based the manufacturer's protocol. Briefly, beads were centrifuged and resuspended in a 130 mM sodium phosphate buffered solution pH 8.0 containing 0.2 mg mAb, 20 mM NaBH₃CN (Sigma 296945) and 0.06% P20 surfactant (Cytiva Life Sciences, BR-1000-54) and incubated on a rotary shaker at 44° C. for 22 hours. Unbound sites were then blocked by adding a final concentration of 3 mg/ml carboxymethoxylamine (CMO) (Sigma C13408), before continuing shaking incubation for a further 1 hour. Beads were washed by centrifugation and resuspension in 100 mM TRIS-HCl pH 8.0 (Sigma T2694), before a final resuspension in PBS (GIBCO 14190)+0.05% Proclin-300 (Sigma 48912-U), at 5 mg/ml and storage at 4° C. until use.
(§4) The assay was performed in white 384 well plates (PerkinElmer, 6007290) using assay buffer 25 mM HEPES (Sigma-Aldrich, H0887), 100 mM NaCl (Sigma-Aldrich, S5150), 0.5% BSA (Sigma-Aldrich, A3294), 0.05% P20 (Cytiva Life Sciences, BR-1000-54), pH7.4 for all dilutions. […] Mouse IgG2a-conjugated acceptor beads described above were added at a final concentration of 20 ug/ml and incubated at room temperature for 30 minutes under subdued lighting. Streptavidin coated donor beads (PerkinElmer, 6760002) were added a final concentration of 20 ug/ml and incubated at room temperature for 60 minutes under subdued lighting. […] Data was normalised to a high control containing all assay components except Bicyclic peptide and fit to a four-parameter non-linear regression in GraphPad Prism 8.0.2 to generate an IC50 value.

[4] = molecular target: T3, human CD16a V176 variant, biotinylated (human, UniProt P08637 17-208, N-terminally biotinylated in-house); assay: AlphaScreen competition vs mouse IgG2a
T3 construct: supplier is told for the AlphaScreen assay only; also called V Variant; FcγRIIIA V variant
Description: as §3, §4

[5] = molecular target: T3, human CD16a V176 variant, biotinylated; assay: SPR
Description: as §1, §2

T2 sequence (P08637 17-254 limits assumed, change not shown): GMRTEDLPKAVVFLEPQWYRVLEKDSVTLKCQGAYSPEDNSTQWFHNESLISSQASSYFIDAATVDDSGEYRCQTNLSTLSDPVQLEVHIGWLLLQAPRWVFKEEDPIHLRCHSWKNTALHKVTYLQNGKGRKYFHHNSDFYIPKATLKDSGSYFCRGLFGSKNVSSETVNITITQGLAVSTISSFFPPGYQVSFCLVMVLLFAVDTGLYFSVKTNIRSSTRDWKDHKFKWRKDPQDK
T3 sequence (P08637 other isoform, or with tags, fused parts or gaps mutant limits assumed): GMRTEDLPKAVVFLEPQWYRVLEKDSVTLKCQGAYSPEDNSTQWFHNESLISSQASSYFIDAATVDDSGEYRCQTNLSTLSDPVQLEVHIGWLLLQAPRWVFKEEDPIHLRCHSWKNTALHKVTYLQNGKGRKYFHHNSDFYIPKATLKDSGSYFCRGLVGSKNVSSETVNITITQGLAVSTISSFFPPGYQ
T1 sequence (P08637 17-208 limits assumed, change not shown): as the sequence (P08637 other isoform, or with tags, fused parts or gaps mutant limits assumed) above, with V160F counted along it

B1: BCY16508 (peptide)
peptide: ACVGLXELGPCSDLCA
modifications: CiVGL[tBuAla]ELGPCiiSDLCiii
notes: scaffold TBMT
In the case of B1, the Kd [1] is reported as 2.98 µM.

B2: BCY21689 (peptide)
peptide: ACRWHXSEXCGAWCA
modifications: CiRWH[HPhe]SE[Aze]CiiGAWCiii
notes: scaffold TBMT
B2 was tested, and the IC50 [2] was 1.24 µM.

B3: BCY15915 (peptide)
peptide: ACPPTVYCHPLDCAK-NH2
modifications: linker 2-8-13 via TATA (inferred); not fully specified (residue 15); also: homodimer via shared N-(amine-PEG2)-N-bis(PEG3-azide) linker
notes: homodimer of BCY15685; scaffold TATA; also called CD16a fluorescent dimer
With B3 the IC50 [3] was 0.0278 µM and the IC50 [4] was 0.0325 µM.

B4: BCY14950 (peptide)
peptide: ACRWSVEDPCGAWCA-NH2
modifications: linker 2-10-14 via TBMT; also: scaffold TATA, TATB or TBMT
notes: scaffold TBMT
Binder B4 has an IC50 [2] of 2.04 µM.

B5: BCY14956 (peptide)
peptide: ACRWSVEDPC[dA]AWCA-NH2
modifications: linker 2-10-14 via TBMT (inferred)
notes: scaffold TBMT
Binder B5 has an IC50 [2] of 1.41 µM, a Kd [1] of 2.66 µM and a Kd [5] of 2.15 µM.

B6: BCY19046 (peptide)
peptide: ACRXSVEDPCGAWCA
modifications: CiR[6MeTrp]SVEDPCiiGAWCiii
notes: scaffold TBMT
Binder B6 has a Kd [1] of 1.6 µM.

B7: BCY20382 (peptide)
peptide: ACRWHXSEPCGAWCA
modifications: CiRWH[Aze]SEPCiiGAWCiii
notes: scaffold TBMT
With B7 the IC50 [2] was 0.749 µM and the Kd [1] was 0.385 µM.

B8: BCY21693 (peptide)
peptide: CRWH[hPhe]SEPCGAWC-NH2
modifications: linker 1-9-13 via TBMT″
notes: scaffold TBMT
B8 gave an IC50 [2] of 0.377 µM.

B9: BCY15916 (peptide)
peptide: ACVGLEELGPCSDLCAK-NH2
modifications: linker 2-11-15 via TBMT (inferred); not fully specified (residue 17); also: homodimer via shared N-(amine-PEG2)-N-bis(PEG3-azide) linker
notes: homodimer of BCY13886; scaffold TBMT; also called CD16a fluorescent dimer
For B9, the IC50 [3] was 0.0526 µM and the IC50 [4] was 0.113 µM.

B10: BCY20394 (peptide)
peptide: ACRWYFSEXCAAWCA
modifications: CiRWYFSE[Aze]Cii[dA]AWCiii
notes: scaffold TBMT
In the case of B10, the Kd [5] is reported as 1 µM.

B11: BCY20379 (peptide)
peptide: ACRWXFSEPCGAWCA
modifications: CiRW[4FPhe]FSEPCiiGAWCiii
notes: scaffold TBMT
B11 showed a Kd [5] of 1.43 µM.

B12: BCY15914 (peptide)
peptide: ACRWSVEDPCGAWCAK-NH2
modifications: linker 2-10-14 via TBMT (inferred); not fully specified (residue 16); also: homodimer via shared N-(amine-PEG2)-N-bis(PEG3-azide) linker
notes: homodimer of BCY13883; scaffold TBMT; also called CD16a fluorescent dimer
B12 was tested, and the IC50 [3] was 0.0511 µM and the IC50 [4] was 0.308 µM.

B13: BCY19050 (peptide)
peptide: ACRXSVEDPCGAWCA
modifications: CiR[6ClTrp]SVEDPCiiGAWCiii
notes: scaffold TBMT
B13 gave a Kd [1] of 2.15 µM.

B14: BCY16608 (peptide)
peptide: ACRWSVEXPCGAWCA
modifications: CiRWSVE[Gla]PCiiGAWCiii
notes: scaffold TBMT
With B14 the IC50 [2] was 1.8 µM.

B15: BCY12622 (peptide)
peptide: ACPPEVWCHPLDCA[Sar][Sar][Sar][Sar][Sar][Sar]K(Biotin)-NH2
modifications: linker 2-8-13 via TATA; N-terminus assumed
SMILES: CC(C)C[C@@H]1NC(=O)[C@@H]2CCCN2C(=O)[C@H](Cc2c[nH]cn2)NC(=O)[C@@H]2CSCCC(=O)N3CN(CN(C3)C(=O)CCSC[C@H](NC(=O)[C@H](C)N)C(=O)N3CCC[C@H]3C(=O)N3CCC[C@H]3C(=O)N[C@@H](CCC(=O)O)C(=O)N[C@@H](C(C)C)C(=O)N[C@@H](Cc3c[nH]c4ccccc34)C(=O)N2)C(=O)CCSC[C@@H](C(=O)N[C@@H](C)C(=O)N(C)CC(=O)N(C)CC(=O)N(C)CC(=O)N(C)CC(=O)N(C)CC(=O)N(C)CC(=O)N[C@@H](CCCCNC(=O)CCCC[C@@H]2SC[C@@H]3NC(=O)N[C@@H]32)C(N)=O)NC(=O)[C@H](CC(=O)O)NC1=O
notes: scaffold TATA
B15 showed a Kd [1] of 1 µM and a Kd [5] of 4 µM.

B16: BCY21694 (peptide)
peptide: Ac-CRWH[hPhe]SEPCGAWC-NH2
modifications: linker 1-9-13 via TBMT(3)
SMILES: CC(=O)N[C@H]1CSCc2nc3nc(n2)CSC[C@H](NC(=O)[C@@H]2CCCN2C(=O)[C@H](CCC(=O)O)NC(=O)[C@H](CO)NC(=O)[C@H](CCc2ccccc2)NC(=O)[C@H](Cc2c[nH]cn2)NC(=O)[C@H](Cc2c[nH]c4ccccc24)NC(=O)[C@H](CCCNC(=N)N)NC1=O)C(=O)NCC(=O)N[C@@H](C)C(=O)N[C@@H](Cc1c[nH]c2ccccc12)C(=O)N[C@H](C(N)=O)CSC3
notes: scaffold TBMT
For B16, the IC50 [2] was 0.166 µM.

B17: BCY20380 (peptide)
peptide: ACRWHXSEPCGAWCA
modifications: CiRWH[4MePhe]SEPCiiGAWCiii
notes: scaffold TBMT
For B17, the IC50 [2] was 0.898 µM.

B18: BCY20388 (peptide)
peptide: ACRWHFXEPCGAWCA
modifications: CiRWHF[HSer]EPCiiGAWCiii
notes: scaffold TBMT
Binder B18 has a Kd [1] of 2.98 µM and a Kd [5] of 1.07 µM.

B19: BCY13883 (peptide)
peptide: ACRWSVEDPCGAWCAK(Pent4ynoyl)-NH2
modifications: linker 2-10-14 via TBMT (inferred)
notes: scaffold TBMT
For B19, the IC50 [4] was 2.54 µM and the Kd [5] was 1.52 µM.

B20: BCY16165 (peptide)
peptide: ACVGLLELGPCSDLCAK(Pent4ynoyl)-NH2
modifications: linker 2-11-15 via TBMT (inferred)
notes: scaffold TBMT
In the case of B20, the Kd [5] is reported as 3.23 µM.

B21: BCY16511 (peptide)
peptide: ACVGLXELGPCSDLCA
modifications: CiVGL[Nle]ELGPCiiSDLCiii
notes: scaffold TBMT
B21 gave a Kd [1] of 4.02 µM and a Kd [5] of 5 µM.

B22: BCY16501 (peptide)
peptide: ACVGXEELGPCSDLCA
modifications: CiVG[tBuAla]EELGPCiiSDLCiii
notes: scaffold TBMT
B22 showed a Kd [5] of 3.23 µM.

B23: BCY20383 (peptide)
peptide: ACRWHXSEPCGAWCA
modifications: CiRWH[HyP]SEPCiiGAWCiii
notes: scaffold TBMT
In the case of B23, the IC50 [2] is reported as 1.11 µM, the Kd [1] is reported as 0.47 µM and the Kd [5] is reported as 0.202 µM.

B24: BCY20392 (peptide)
peptide: ACRWHFSEPC[dA]AWCA-NH2
modifications: linker 2-10-14 via TBMT″ (inferred)
notes: scaffold TBMT
In the case of B24, the Kd [1] is reported as 0.825 µM and the Kd [5] is reported as 0.385 µM.

B25: BCY16509 (peptide)
peptide: ACVGL[Cba]ELGPCSDLCA-NH2
modifications: linker 2-11-15 via TBMT″
notes: scaffold TBMT
B25 gave a Kd [1] of 2.82 µM.
